Measured values as given in a protein production outcome set (Wang et al. 2014).

Experiment: label from the status in PepcDB records
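Note: failed if final PepcDB status was selected cloned or expressed and not failed if soluble or beyond.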

Row | Sequence | protein production
1 | MEFLAYFNSVISNNIFLAIILSFFAGVVASFSPCTLSSIPLLIGYVQGSEVKDNKKAFKYSLIFSIGLGITFTVIGLLTALIGKAFLGAGKFWYIILAFIMIGSGLQVLDVINLFGDKKEACKITKRREGILDAFFLGILSGILASPCATPIMAAIIAFIAASGNLVIGMIMLLMYSLGHSVLIILAGTSFGLVEKIAYSENGKKIGRVLKNILGTIIILVGLYLFYLGV | failed
2 | MKMKILGISFGTKNGNNDTMCKVALKGAKEAGAEVEFIQMSSINIKHCTGCCACVKTLLSGKGSMCVLKDDFEWLLDKMKDADGIVVSDPIFEEGASGLFHTIMDRFGPRADRGNNIIGTKVAEAIGGKIPDSRMLNDKVISFMGIGGSDWGTRVQCEHAMLALIPMWKVIDNAWFPWAKELVMDDTRLVQVHQIGLNIVEAAKDFEKASYQGEEGVCPHCHNRLFYLEPGTKKAICALCGIVGELDTISGKTIFSFPEEQLGHAHDTLPGKFIHGDDIKKMEGHYAEVRKTQEFKERKTSYNFIETLTKEKQAGLEHHHHHH | failed
3 | GSHMPVPSFGEAMAYFAMVKRYLTSFPIDDRVQSHILHLEHDLVHVTRKNHARQAGVRGLGHQS | not failed
4 | KIERDKAERAKKYGGSVGSQPPPVAPEPGPVPSSPSQEPPTKREYDQCRIQVRLPDGTSLTQTFRAREQLAAVRLYVELHRGEELGGGQDPVQLLSGFPRRAFSEADMERPLQELGLVPSAVLIVAKKC | failed
5 | MSLIVITGASSGLGAELAKLYDAEGKATYLTGRSESKLSTVTNCLSNNVGYRARDLASHQEVEQLFEQLDSIPSTVVHSAGSGYFGLLQEQDPEQIQTLIENNLSSAINVLRELVKRYKDQPVNVVMIMSTAAQQPKAQESTYCAVKWAVKGLIESVRLELKGKPMKIIAVYPGGMATEFWETSGKSLDTSSFMSAEDAALMIHGALANIGNGYVSDITVNREGHHHHHH | not failed
6 | MSTLQTPGATLYSFRRCPYAMRARLALRYAGVPMRIVEVSLKAKPAEMLALSAKGTVPVLALEDRVIDESLEIMHWALAQHDPEDWRLTADPTAQAQMAALIAENDQVFKVHLNRYKYAERYPEAPMEHYRAQGEAFLARLDSLLQQRRYLLAEHPSLADMALLPFVRQFAHVDREWFAQTPYRSLQEWLQERLASELFLAVMAKQ | failed
7 | MGSPNSLSRRGFCLCCVGGATFAASAGWLTPREAYAEARGLVSLIKDSAAISPITASRLRNNISVLEGSGGNIAVLTGSDGKLLVDAGIRVSRAQLTNALAGLGTDPVTHLVNTHWHFDHADGNEWLHSAGAKIIAHENTRKHLLGVQRVEDWDYNFLPLGPGGIPSEVFAGSHKLGLNGASISLKYFGPAHTDSDVSVTFVEANIVHVGDTFWNGIYPFIDYSTGGSIDGMIAACDANLAATDKDTIIIPGHGKPVSNKAELQAFRDMLVAIRDNVARLKAQGRTWDETVAAKPTAAFDAQWGQFVIDPGFFTRLVYQGV | failed
8 | MSVSVKGNEQLTSLLNDWYRAMLSQQVIKATNLKKKIDEKINKLSIEPDQEHQDQNLLLYYSLLEFRYKVLTDSLGIQQNSFDTISDYDMPTDQFLQFYYHFFKSIHSTFISNYTEAEEHYKLAEKILVAIPDEIEHAEFYYRIATFYHHTYNNLASIEYANKSRAIFSKYEGYEVKTAFCNSLLGGCCIYLKQYEQAEEYLHCAIDLLQKNREEDSLLYVKNTMGWLYSDQSMSTLAIRHLSEVTEKIPTHFKAIFLQAKEHYKLGEQSTASQLIDKGLQICREIHNEEYTHHFSILKKLNENIPLEELEKIIQEGILYFEEEELWEYVVEYAELFATKCRQLENHQKVSDYFHICYQARQKSIAKGVLK | failed
9 | MNFAGQPLQDGSLPRIGTGKDALSLLDLSDFVARHWRFIGLVTVFVMALALAYLAAAPSRYTAQTDMIIDTKRVTWTQSEFATENRMVEDASVESEIETTKSEKVALQVIRKLRLTEDPEFIGSGTGLRNRLYQLLDLDAPISPQLTPSELEARALSRVKDNLKVMRLGRSYIEQISFTSLVPEKAAVIANAFADAYIEDQIQAKFEATRRASEWLQQRIGELRQQASDAYRAVQDFKSSNSIIVSGDGKLASDLELDQLGISLAKARAETSQARAKLERITRVLELRQEKGSNEIPDPVVTDALSNPVITRLRQQYLDNQSKEAEWSSRYGAEHQAARNLRSEMANVRQAIWDEVSRIAESYRSEVQIAKTQEDSIDKRMIEVFQSSTGTRQAQVHLRELETAATTYRGIYETFLTRFTQSVQQQSFPSTEARVVTLASPPSVRSSPKTNLTLALAAISGLTLGILGAFARDRMSRRIHTRAQLETILGTSCLAIIPSFANPALTSQTSTSSSRLSRAVKQLLRKRDHVPGQPRERSQANSAAFEKINDVAPFSATAEALRHIKVAIDLSPGGGRVIGIVSARPGEGKTTICASFAAFLARSGARTLLIDGDLRNPSLSRTLGYKNKRGLLELVADQLQLSDLVVTDPVYKFDFLPSATEMKPINSADVLTSPSVKRMLKSAAGNYDYIIVDLPPILPVVDVKAAAHLFDAFVLVVEWGATMSDEVRSAVGVSRSLSERLLGAVLNKTDEDVMRRLEGYSYRSHHYYYYGAPKHENEQTKN | failed
10 | MFSIVFPVIAPVLIVVAVGFGWARAGRPFDTATVSALGLGLGTPFLLTDVLMSANIAADALAAMGLAALLTLAGMAVGGALTLRLLKLPQAVFLPSMIFGNTGNIALPLCLFAFGDEGLALSIGYFTVVIVIQFSATALISSGERPVPVILRNPVIWTLLVVGTLKAGGIALPGWLADTAHMVGGMCIPVMLLALGVSLARLKVAGLGVALLLGAVKIALGVALGYATVLALDLHGAARGVVLIQSAMPPAVFNYLFAARYNQRPEEVAGLVIVSTGLSVLTMPLLLWGAMADM | failed
11 | MDEKRLKILEAAMEEFTEKGYQAASTNKICAKAGVSKGLIFHYFGSKEKLYIAAVSYAVDFATNEVSLEEKRWSDFVEMAIWSTKMKLDFNRKYPAIFGLIMQAYGNPPPELKGKLDGFFDKAIERSEAQMNQVLNEMQLKKDVNMDAARKVMEALFQHITEKSTVFLQRHPNATMEDFIPLANDFTEMMRIVEFGICEEKKDSGE | failed
12 | MGVDMELKVEASLREARTLLAAKQYSQAANVAHSLFCTCHKFNLQIEKASVLLLLAEIHKKSGNAVLGLPYALASISFCQSFNLDLLKASATLTLAELWLGLGSNHTKRALDLLHGAFPMILGHGGLELRARAYIFEANCYLSDPSSSVSTDSDTVLDSLRQASDELQALEYHELAAEASYLMAMVYDKLGRLDEREEAASLFKKHIIALENPQDVEQNMA | failed
13 | KKLANADANNDSRVYVAVDGDIGVGYATMKVFMLSNDEYKILSGKYPRQVPVVMLDQIAVDKAYQGKGIGKRLMRKVLEATVLVNELAAAKGLALWAHPRAKDFYESLGFEAIPDATKQVQDVELTLMFIHVETILDALK | failed
14 | MSQKQEEENPAEETGEEKQDTQEKEGILPERAEEAKLKAKYPSLGQKPGGSDFLMKRLQKGQKYFDSGDYNMAKAKMKNKQLPSAGPDKNLVTGDHIPTPQDLPQRKSSLVTSKLAGGQVE | failed
15 | MKTPTRVSFEKKIHTPPSGDRDAERSPPKKFLRGLSGKVFRKTPEFKKQQMPTFGYIEESQFTPNLGLMMSKRGNIPKPLNLSKPISPPPSLKKTAGSVASGFSKTGQLSALQSPVNITSSNKYNIKATNLTTSLLRESISDSTTMCDTLSDINLTVMDEDYRIDGDSYYEEDSPTFMISLERNIKKCNSQFSPKRYIGEKCLICEESISSTFTGEKVVESTCSHTSHYNCYLMLFETLYFQGKFPECKICGEVSKPKDKDIVPEMVSKLLTGAGAHDDGPSSNMQQQWIDLKTARSFTGEFPQFTPQEQLIRTADISCDGFRTPRLSNSNQFEAVSYLDSPFLNSPFVNKMATTDPFDLSDDEKLDCDDEIDESAAEVWFSKTGGEHVMVSVKFQEMRTSDDLGVLQDVNHVDHEELEEREKEWKKKIDQYIETNVDKDSEFGSLILFDKLMYSDDGEQWVDNNLVILFSKFLVLFDFEEMKILGKIPRDQFYQVIKFNEDVLLCSLKSTNIPEIYLRFNENCEKWLLPKWKYCLENSSLETLPLSEIVSTVKELSHVNIIGALGAPPDVISAQSHDSRLPWKRLHSDTPLKLIVCLNLSHADGELYRKRVLKSVHQILDGLNTDDLLGIVVVGRDGSGVVGPFGTFIGMINKNWDGWTTFLDNLEVVNPNVFRDEKQQYKVTLQTCERLASTSAYVDTDDHIATGYAKQILVLNGSDVVDIEHDQKLKKAFDQLSYHWRYEISQRRMTPLNASIKQFLEELHTKRYLDVTLRLPQATFEQVYLGDMAAGEQKTRLIMDEHPHSSLIEIEYFDLVKQQRIHQTLEVPNL | failed
16 | MNIDLTPYYAEPGEQPFSARRMAMPWRNHVPLSPEQIPAGWQTLKQQSVPARKRLLYLHIPFCATHCTFCGFYQNKLRDDSTATYTRYLLQELAMEADSPLHQSAPIHAVYFGGGTPTALAADELSQIIRAIRTSLPLAPDCEITVEGRAMDFDDERIDACLDAGANRFSIGIQTFDTRIRQRMARTSDKQQSIRFLERLCGRDRAAVVCDLMFGLPGQTPEIWREDLAIVSDLPLDGVDLYALNLLPTTPLAKAAENQRVALPDVVARRDFYRTGAAFLADSGWHQLSNSHWARTTRERNLYNLLIKQGADCLAMGSGAGGNINGQAYMMERSLERYYQQIDQGQKPIMMMTPASSTGPWQHQLQAGIEVGRIKLPQLTQHARELQPLLSQWHQAGLTCDDSTCLRLTNDGRFWANNLMQALQQIIPQLNAEEHAHLEHHHHHH | not failed
17 | MVPRVPQPGIWCPAVTFFDSKTDTLDLASQERYYAYLARSGLTGLVILGTNAEAFLLTREERAQLIATARKAVGPDFPIMAGVGAHSTRQVLEHINDASVAGANYVLVLPPAYFGKATTPPVIKSFFDDVSCQSPLPVVIYNFPGVCNGIDLDSDMITTIARKNPNVVGVKLTCASVGKITRLAATLPPAAFSVFGGQSDFLIGGLSVGSAGCIAAFANVFPKTVSKIYELYKAGKVDQAMELHRKAALAESPCKSGIATTKYAAAIFSAKAAGIEDAEEKLRPRKPYDPPSEAAKQEVRKVMAEVAAIEAGLS | not failed
18 | MSDSWARSPSLSGYARQEGKFRVAIGAPRGDIPGQGDSSMSTQTAVLKKDITPQGSDYEIVRRAIEKISLDYRDQPSLEELAEEVGETPTGLQKLFTRWAGLSPKAFLQAVTLDHARRLLDSGMPLLETSFELGMSGPGRLHDLFVTHEAMSPGDYKTRGAGLTIRYGYHASPFGTALIMATDRGLAGLAFSDPGEERAAFADMSSRWPNAIYVEDLAATGPYAARIFDPTLWRPDQPLHVVMIGTDFQVRVWEALLQIPMGKARTYSSIAASIGAPSASRAVGAANGANPLSFVVPCHRAIGKSGDLTGYHWGLTRKRAILGWEAGQVSS | failed
19 | MEILQFIGYGNMAQAILEGAHEILSKRFILEITGRNPEKIAPFLQEKNIQAQIVPYKDAIDIHQKFVFLLFKPYNLKDFNYQGQAKSVLSALAGVGFKALSDAIDSLHYLKCMPNIASKFALSSTAVCEKSPMPLISQKALSVIESFGNCVRVGHEELVDASVATNGSALAFLSLVANSLKDAGIREGLNARGSLELVKMSFKGFAKLLEKERPEMIIEQICTPKGATIEGLSVLEKKGVRGAFIEACHKSVKKMRL | failed
20 | MGNSITVKRKRAKVMKIDGETFRIKTPVTAREVTADYPGYVLLDSQAVKHFGVRSKPLEPNQTLKPKKTYFLVELPKLPPETTAVDTENKLPYRRVMSGIHVGAKERLDMLMLSRRTVSDVTIGRSDGGDGFGPELGPGHTSVRLRLPRSQITKLMEENNNDASAIAEKILGIYMERSGELGGGRGGVDGRRELGSGEIKAREVSFAGEGGRELPVLWSRSGK | failed
21 | LTPLAQMAEGMERQDVSIDKWTLHAKQNLSLTEKEFYQKVQRLKQEYRQYDWVIAREDKMIKAIGTYTDKKNRTSFRLQLVTTLKKHNPTSYLLYEQMSLETPDSWNDTYEQFERETLGIFQEKVVIFTCLNGHLDDNMNIVLQKKANQLLNEFQARSVEHVVEPNFVSISAFTDEWEEYIMTSKHKMNLQIALRSAGMGGKHTVTVGTPIVTTEY | not failed
